T1: GST–PAH1 (amino acids 34–108) (mouse (as mSin3b), UniProt Q62141 34-108)
T1 sequence (looked up): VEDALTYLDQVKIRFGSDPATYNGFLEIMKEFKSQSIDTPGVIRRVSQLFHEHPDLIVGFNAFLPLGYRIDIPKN


These binders were tested against T1, GST–PAH1 (amino acids 34–108) (assay: pull-down).
EGDWLFFVLLVGLL [protG-P1-1 (P1-1 fused to the GB1 domain of streptococcal protein G)]: binds.
SAAMGSAEFEALVALLFLSEE [protG-P1-8 (P1-8 fused to the GB1 domain of streptococcal protein G)]: binds.
SAAMGSAEAEALVALLFLSEE [protG-P1-8 Phe9 to alanine]: binds.
SAAMGSAEFEALAALLFLSEE [protG-P1-8 Val13 to alanine]: binds.
SAAMGSAEFEAAVALLFLSEE [protG-P1-8 Leu12 to alanine]: binds.

Reference: article PMC1557813 (Nucleic Acids Research, 2006)
